Experiments:
human CEACAM3 (human) [1] = biological target: human CEACAM3 (human) (UniProt P40198); assay: flow cytometry, transfected PEAK cells, equimolar to 10 mcg/ml full-size antibody
human CEACAM6 (human) [2] = biological target: human CEACAM6 (human) (UniProt P40199); assay: as above
human CEACAM4 (human) [3] = biological target: human CEACAM4 (human) (UniProt O75871); assay: as above
human CEACAM8 (human) [4] = biological target: human CEACAM8 (human) (UniProt P31997); assay: as above
human CEACAM1 (human) [5] = biological target: human CEACAM1 (human) (UniProt P13688); assay: as above
[6] = biological target: human CEACAM5 (carcinoembryonic antigen, CEA), cell surface (human) (UniProt P06731); assay: as above
human CEACAM3 (human) [7] = biological target: human CEACAM3 (human) (UniProt P40198); assay: flow cytometry, MFI on transfected PEAK cells divided by MFI on WT PEAK cells
human CEACAM6 (human) [8] = biological target: human CEACAM6 (human) (UniProt P40199); assay: as above
human CEACAM4 (human) [9] = biological target: human CEACAM4 (human) (UniProt O75871); assay: as above
human CEACAM8 (human) [10] = biological target: human CEACAM8 (human) (UniProt P31997); assay: as above
human CEACAM1 (human) [11] = biological target: human CEACAM1 (human) (UniProt P13688); assay: as above
[12] = biological target: human CEACAM5 (carcinoembryonic antigen, CEA), cell surface (human) (UniProt P06731); assay: as above

human CEACAM6 (human), sequence (P40199 35-320): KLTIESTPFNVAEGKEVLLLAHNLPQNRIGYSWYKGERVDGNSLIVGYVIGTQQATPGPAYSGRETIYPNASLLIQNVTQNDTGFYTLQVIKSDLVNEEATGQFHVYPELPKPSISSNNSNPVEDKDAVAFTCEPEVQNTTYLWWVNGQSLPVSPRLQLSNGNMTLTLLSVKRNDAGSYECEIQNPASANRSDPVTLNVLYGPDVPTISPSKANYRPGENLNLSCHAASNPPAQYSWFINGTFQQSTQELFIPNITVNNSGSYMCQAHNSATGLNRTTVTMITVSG
human CEACAM1 (human), sequence (P13688 35-526): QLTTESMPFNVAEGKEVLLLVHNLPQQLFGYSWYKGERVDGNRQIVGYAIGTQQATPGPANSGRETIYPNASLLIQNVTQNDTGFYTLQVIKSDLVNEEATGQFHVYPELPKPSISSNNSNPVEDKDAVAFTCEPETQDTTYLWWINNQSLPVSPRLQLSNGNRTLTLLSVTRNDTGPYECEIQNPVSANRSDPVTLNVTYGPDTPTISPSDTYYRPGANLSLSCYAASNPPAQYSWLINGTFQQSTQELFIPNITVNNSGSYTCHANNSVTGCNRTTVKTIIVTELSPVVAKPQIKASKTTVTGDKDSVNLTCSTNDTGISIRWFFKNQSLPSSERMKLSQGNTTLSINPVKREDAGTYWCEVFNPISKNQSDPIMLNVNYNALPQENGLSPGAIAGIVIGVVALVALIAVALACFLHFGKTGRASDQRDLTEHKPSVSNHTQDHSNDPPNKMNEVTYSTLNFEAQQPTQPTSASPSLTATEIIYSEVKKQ
human CEACAM4 (human), sequence (O75871 36-244): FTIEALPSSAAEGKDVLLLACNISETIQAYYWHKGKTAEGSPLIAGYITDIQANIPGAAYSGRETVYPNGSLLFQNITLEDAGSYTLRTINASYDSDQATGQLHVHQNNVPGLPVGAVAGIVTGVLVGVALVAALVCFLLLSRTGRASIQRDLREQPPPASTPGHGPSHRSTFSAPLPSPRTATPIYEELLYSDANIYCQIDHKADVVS
human CEACAM8 (human), sequence (P31997 35-320): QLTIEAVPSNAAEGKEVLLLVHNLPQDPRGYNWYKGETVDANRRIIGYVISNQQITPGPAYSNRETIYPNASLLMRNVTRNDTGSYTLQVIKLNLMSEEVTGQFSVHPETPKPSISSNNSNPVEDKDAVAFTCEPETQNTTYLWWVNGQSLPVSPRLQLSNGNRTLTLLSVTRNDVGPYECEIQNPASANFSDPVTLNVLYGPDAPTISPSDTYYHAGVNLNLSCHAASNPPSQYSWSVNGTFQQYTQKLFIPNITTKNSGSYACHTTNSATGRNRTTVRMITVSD
human CEACAM3 (human), sequence (P40198 35-252): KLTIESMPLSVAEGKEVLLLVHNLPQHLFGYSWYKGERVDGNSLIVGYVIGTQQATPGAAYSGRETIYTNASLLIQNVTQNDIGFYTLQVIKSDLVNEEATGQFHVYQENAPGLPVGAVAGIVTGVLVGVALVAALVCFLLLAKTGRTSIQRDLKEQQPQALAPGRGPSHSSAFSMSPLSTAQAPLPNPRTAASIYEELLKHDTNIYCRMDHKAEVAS
human CEACAM5 (carcinoembryonic antigen, CEA), cell surface (human), sequence (P06731 35-685 limits assumed): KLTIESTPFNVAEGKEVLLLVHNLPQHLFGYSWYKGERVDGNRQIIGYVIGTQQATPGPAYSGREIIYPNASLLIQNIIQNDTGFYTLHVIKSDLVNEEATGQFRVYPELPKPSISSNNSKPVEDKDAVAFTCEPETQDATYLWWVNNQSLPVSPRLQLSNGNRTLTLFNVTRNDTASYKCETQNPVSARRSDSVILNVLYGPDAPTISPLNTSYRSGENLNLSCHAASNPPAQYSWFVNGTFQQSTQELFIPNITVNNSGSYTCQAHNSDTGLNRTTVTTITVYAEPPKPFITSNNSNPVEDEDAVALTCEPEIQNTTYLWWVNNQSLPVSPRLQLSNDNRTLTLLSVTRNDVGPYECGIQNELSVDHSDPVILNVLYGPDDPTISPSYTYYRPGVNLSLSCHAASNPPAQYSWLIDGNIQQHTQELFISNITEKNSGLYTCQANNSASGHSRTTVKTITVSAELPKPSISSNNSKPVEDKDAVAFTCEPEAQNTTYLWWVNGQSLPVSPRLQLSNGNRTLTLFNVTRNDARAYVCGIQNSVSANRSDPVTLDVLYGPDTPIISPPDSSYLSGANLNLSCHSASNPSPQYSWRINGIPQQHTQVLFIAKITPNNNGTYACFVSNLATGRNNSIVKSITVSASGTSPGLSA

- MFI (human CEACAM3 (human) [1]): 943 MFI
- MFI (human CEACAM6 (human) [2]): 1830 MFI
- MFI (human CEACAM4 (human) [3]): 1340 MFI
- MFI (human CEACAM8 (human) [4]): 24000 MFI
- MFI (human CEACAM1 (human) [5]): 1470 MFI
- MFI [6]: 18400 MFI
- Factor to PEAK WT (human CEACAM3 (human) [7]): 0.8 fold
- Factor to PEAK WT (human CEACAM6 (human) [8]): 1.6 fold
- Factor to PEAK WT (human CEACAM4 (human) [9]): 1.1 fold
- Factor to PEAK WT (human CEACAM8 (human) [10]): 20.4 fold
- Factor to PEAK WT (human CEACAM1 (human) [11]): 1.2 fold
- Factor to PEAK WT [12]: 15.7 fold
Substance: MEDI-565 BiTE (bispecific antibody)

— patent US20230136228A1
